Measured values taken from US20150203840A1 (ARGEN X N V, published 2015).
Where a chain is given by its changes, count along the chain named. Values belong to the binder of their own block, whether it stands above or below them.

Legend:
[1] = target: T1, recombinant mouse IL22R1 (mouse IL22R ECD) (mouse) (UniProt Q80XZ4); assay: Biacore, immobilized mouse IL22R ECD
T1 sequence (biotinylated in the ELISA of Table 4, looked up): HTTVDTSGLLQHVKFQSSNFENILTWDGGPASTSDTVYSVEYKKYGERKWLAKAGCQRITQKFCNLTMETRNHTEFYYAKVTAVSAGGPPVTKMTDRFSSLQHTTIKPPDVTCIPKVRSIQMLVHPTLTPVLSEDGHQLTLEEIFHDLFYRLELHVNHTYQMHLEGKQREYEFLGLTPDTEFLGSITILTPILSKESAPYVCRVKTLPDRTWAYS

[2] = target: T2, recombinant human IL22R1 (human IL22R ECD) (human) (UniProt Q8N6P7); assay: ELISA, mAb coated at 100 ng/ml, biotinylated human IL22R ECD at 2 ng/ml, streptavidin-HRP
T2 sequence (biotinylated in the ELISA of Table 4, looked up): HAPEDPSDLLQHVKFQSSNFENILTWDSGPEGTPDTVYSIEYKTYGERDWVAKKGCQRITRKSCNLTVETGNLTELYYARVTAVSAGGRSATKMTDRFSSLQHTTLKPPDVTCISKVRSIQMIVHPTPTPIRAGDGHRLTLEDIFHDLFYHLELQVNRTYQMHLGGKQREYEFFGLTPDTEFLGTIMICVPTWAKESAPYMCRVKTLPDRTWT

[3] = target: T2, recombinant human IL22R1 (human IL22R ECD) (human); assay: Biacore, immobilized human IL22R ECD
[4] = target: T3, rhesus IL22R ECD (rhesus) (UniProt G7MHN4); assay: ELISA, mAb coated at 100 ng/ml, biotinylated rhesus IL22R ECD at 100 ng/ml, streptavidin-HRP
T3 sequence (chain, biotinylated): T2 sequence (biotinylated in the ELISA of Table 4, looked up) with S18N, L73H, S99N, T105A, S115P, K167E, A194S, E196K, K205R

[5] = target: T2, recombinant human IL22R1 (human IL22R ECD) (human); assay: ELISA, mAb coated at 100 ng/ml, biotinylated human IL22R ECD at 100 ng/ml, streptavidin-HRP
[6] = target: T3, rhesus IL22R ECD (rhesus); assay: ELISA, mAb coated at 100 ng/ml, biotinylated rhesus IL22R ECD at 2 ng/ml, streptavidin-HRP
[7] = target: T1, recombinant mouse IL22R1 (mouse IL22R ECD) (mouse); assay: ELISA, mAb coated at 100 ng/ml, biotinylated mouse IL22R ECD at 2 ng/ml, streptavidin-HRP
cyno IL22R ECD (cyno) [8] = assay: ELISA, mAb coated at 100 ng/ml, biotinylated cyno IL22R ECD at 100 ng/ml, streptavidin-HRP
[9] = target: T1, recombinant mouse IL22R1 (mouse IL22R ECD) (mouse); assay: ELISA, mAb coated at 100 ng/ml, biotinylated mouse IL22R ECD at 100 ng/ml, streptavidin-HRP
cyno IL22R ECD (cyno) [10] = assay: ELISA, mAb coated at 100 ng/ml, biotinylated cyno IL22R ECD at 2 ng/ml, streptavidin-HRP
[11] = target: T4, recombinant human IL22R1 (human IL22R ECD) (human, UniProt Q8N6P7 16-228, biotinylated in the ELISA of Table 4); assay: Biacore, hIL22R
T4 construct: extracellular domain; also called hIL22R; human Interleukin 22 receptor
T4 sequence (looked up): T2 sequence (biotinylated in the ELISA of Table 4, looked up)

[12] = target: T5, human IL22R on BW-hIL22R cells (human, UniProt Q8N6P7 16-574); assay: cell-based or functional assay
T5 sequence (looked up): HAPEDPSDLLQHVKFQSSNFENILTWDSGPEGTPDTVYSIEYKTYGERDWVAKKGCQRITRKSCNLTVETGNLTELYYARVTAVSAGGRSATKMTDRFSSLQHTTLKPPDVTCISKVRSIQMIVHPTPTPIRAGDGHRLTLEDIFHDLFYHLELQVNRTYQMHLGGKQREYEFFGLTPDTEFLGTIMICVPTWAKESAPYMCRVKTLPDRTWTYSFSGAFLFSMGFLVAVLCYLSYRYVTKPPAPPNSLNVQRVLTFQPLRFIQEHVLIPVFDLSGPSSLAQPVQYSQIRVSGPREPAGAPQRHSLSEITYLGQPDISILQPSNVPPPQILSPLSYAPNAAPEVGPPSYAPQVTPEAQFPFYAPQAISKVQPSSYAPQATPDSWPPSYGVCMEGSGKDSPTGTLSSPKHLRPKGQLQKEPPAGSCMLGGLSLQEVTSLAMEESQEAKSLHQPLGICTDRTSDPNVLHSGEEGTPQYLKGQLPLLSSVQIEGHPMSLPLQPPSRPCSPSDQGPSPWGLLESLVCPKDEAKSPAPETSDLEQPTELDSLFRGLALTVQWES

[13] = target: T5, human IL22R on BW-hIL22R cells; assay: cell-based or functional assay; remark: listed apart in the source
[14] = target: T6, recombinant mouse IL22R1 (mouse IL22R ECD) (mouse, UniProt Q80XZ4 16-230, biotinylated in the ELISA of Table 4); assay: Biacore, mIL22R
T6 construct: extracellular domain; also called mIL22R; mIL22R1
T6 sequence (looked up): T1 sequence (biotinylated in the ELISA of Table 4, looked up)

[15] = target: T7, mouse IL22R on BaF3-mIL22R cells (mouse, UniProt Q80XZ4 16-581); assay: cell-based or functional assay
T7 sequence (looked up): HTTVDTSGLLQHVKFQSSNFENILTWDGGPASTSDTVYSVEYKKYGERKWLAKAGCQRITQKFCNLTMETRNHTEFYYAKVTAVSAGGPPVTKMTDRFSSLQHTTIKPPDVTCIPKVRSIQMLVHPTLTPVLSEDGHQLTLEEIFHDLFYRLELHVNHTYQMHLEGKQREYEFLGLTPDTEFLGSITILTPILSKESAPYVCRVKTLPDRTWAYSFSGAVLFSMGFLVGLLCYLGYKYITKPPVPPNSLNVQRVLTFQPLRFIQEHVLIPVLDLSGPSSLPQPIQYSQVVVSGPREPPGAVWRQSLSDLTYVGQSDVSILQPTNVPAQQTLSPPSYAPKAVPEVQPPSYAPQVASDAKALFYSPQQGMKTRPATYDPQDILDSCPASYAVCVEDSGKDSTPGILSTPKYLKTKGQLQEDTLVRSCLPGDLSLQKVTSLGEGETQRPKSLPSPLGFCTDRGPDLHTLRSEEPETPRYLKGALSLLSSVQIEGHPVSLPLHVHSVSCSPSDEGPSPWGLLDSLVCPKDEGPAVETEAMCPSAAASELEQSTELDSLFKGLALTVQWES

[16] = target: T6, recombinant mouse IL22R1 (mouse IL22R …); assay: screening of clones selected on mouse IL22R; method not detailed

Kd [1]: 1.8 nM | koff [1]: 0.00048 s⁻¹ | kon [1]: 260000 M⁻¹ s⁻¹ | Absorption at 620 nm (relative absorption units) [2]: 1.03 | Kd [3]: 0.42 nM | koff [3]: 0.00028 s⁻¹ | kon [3]: 670000 M⁻¹ s⁻¹ | Absorption at 620 nm (relative absorption units) [4]: 2.59 | Absorption at 620 nm (relative absorption units) [5]: 2.57 | Absorption at 620 nm (relative absorption units) [6]: 1.97 | Absorption at 620 nm (relative absorption units) [7]: 1.86 | Absorption at 620 nm (relative absorption units) (cyno IL22R ECD (cyno) [8]): 2.18 | Absorption at 620 nm (relative absorption units) [9]: 2.36
B1: 205A9 (antibody, part only; not given: parental heavy chain variable domain, V domains shown, part only)
VL: HSAVTQPSAVSVSLGQTARITCQGGNFGSYYASWYQQKPGQAPVLVIYDDDRRPSGIPERFSGSSSGGRSTLTISGAQSGDEGDYYCQSADLSGNPVFGGGTHLTVL

Kd [1]: 0.007 nM | koff [1]: 1e-06 s⁻¹ | kon [1]: 150000 M⁻¹ s⁻¹ | Absorption at 620 nm (relative absorption units) [2]: 1 | Kd [3]: 0.0019 nM | koff [3]: 3.1e-07 s⁻¹ | kon [3]: 160000 M⁻¹ s⁻¹ | Absorption at 620 nm (relative absorption units) [4]: 2.77 | Absorption at 620 nm (relative absorption units) [5]: 2.93 | Absorption at 620 nm (relative absorption units) [6]: 1.17 | Absorption at 620 nm (relative absorption units) (cyno IL22R ECD (cyno) [10]): 1.36 | Absorption at 620 nm (relative absorption units) [7]: 0.172 | Absorption at 620 nm (relative absorption units) (cyno IL22R ECD (cyno) [8]): 2.66 | Absorption at 620 nm (relative absorption units) [9]: 2.36
B2: 205A5 (antibody, part only; not given: parental light chain variable domain, V domains shown, part only)
VH: QVQLVESGGGLVQPGGSLRLSCAASGFTFNSYEMYWVRQAPGKGLEWVSGITADGGYTYYADSVKGRFTMSRDNAKNTLYLQMNSLKPEDTALYYCANLWNDYWGQGTQVIVSS

Kd [11]: 0.12 nM | IC50 pM (potency on human IL22R expressing cells) [12]: ~106 pM | Potency (pM) BW-hIL22R [13]: 106 pM
B3: 170B2 (antibody, V domains shown)
VH: EVQLVESGGGLVQPGGSLRLSCAASGFTFSSSWMYWVRQAPGKGLEFVSVINTRSGITHYVESVKGRFTISTDNAKNTLFLQMNSLKSEDTAVYYCATRIQGLIDYWGQGTQVTVSS
VL: DIVMTQSPSSLSVSLGDRVTITCQASQSIGSVNALAWYQQKPGQSLKLLIHGASRLQTGVPSRFSGSGSGTSFTLAISGVEAEDLATYYCLQDYAWPLTFGQGTKVELK
notes: Llama-derived parental clone; also called VH_170B2; VK_170B2

Kd [14]: 0.45 nM | Kd [11]: 0.08 nM | IC50 pM (potency on human IL22R expressing cells) [12]: 67 pM | Potency (pM) BW-hIL22R [13]: 67 pM | Potency (pM) BaF3-mIL22R [15]: 870 pM
B4: 196C2 (antibody, V domains shown)
VH: B3 VH
VL: DIQMTQSPSSLSASLGDRVTITCQASQSISSLLAWYQQKPGQAPKLLIYGASRLQTGVPSRFSGSGSGTSFTLTISGVEAEDLATYYCLQDYSWPLTFGQGTKVELK
notes: Vkappa-shuffled clone of 170B2 (keeps the 170B2 VH-CH1); also called VK_196C2

Kd [14]: 0.45 nM | Kd [11]: 0.29 nM | IC50 pM (potency on human IL22R expressing cells) [12]: 124 pM | Potency (pM) BW-hIL22R [13]: 124 pM | Potency (pM) BaF3-mIL22R [15]: 790 pM
B5: 197G10 (antibody, V domains shown)
VH: B3 VH
VL: DIQMTQSPSSMSASLGDSVTISCQASENIGTQLFWYQQNAGQPPKLLIYGASRLQTGVPSRFSGSGSGTTFTLTISGVETGDLATYYCLQDYSWPLTFGQGTKVELK
notes: Vkappa-shuffled clone of 170B2 (keeps the 170B2 VH-CH1); also called VK_197G10

binding result [16]: binds | IC50 pM (potency on human IL22R expressing cells) [12]: 132 pM
B6: 198G11 (antibody, V domains shown)
VH: B3 VH
VL: DIVMTQSPSSLSASLGDRVTVTCQASQSIRSSLNWYQQKPGQAPKLLIYGASRLRIGVPSRFSGSASGTSFTLTISGVESEDLATYYCLQDYTWPLSFGSGTRLEIK
notes: Vkappa-shuffled clone of 170B2 (keeps the 170B2 VH-CH1); also called VK_198G11

Kd [14]: 0.39 nM | Kd [11]: 0.038 nM | IC50 pM (potency on human IL22R expressing cells) [12]: 69 pM | Potency (pM) BW-hIL22R [13]: 69 pM | Potency (pM) BaF3-mIL22R [15]: 160 pM
B7: 197B7 (antibody, V domains shown)
VH: B3 VH
VL: B4 VL with Q3V, S30R, L32F, L33I, A34D, A51T, Q55E, S65T
notes: Vkappa-shuffled clone of 170B2 (keeps the 170B2 VH-CH1); also called VK_197B7

Kd [14]: 0.31 nM | Kd [11]: 0.01 nM | IC50 pM (potency on human IL22R expressing cells) [12]: 87 pM | Potency (pM) BW-hIL22R [13]: 87 pM | Potency (pM) BaF3-mIL22R [15]: 105 pM
B8: 196F8 (antibody, V domains shown)
VH: B3 VH
VL: B4 VL with L32M, K45N, G66R
notes: Vkappa-shuffled clone of 170B2 (keeps the 170B2 VH-CH1); also called VK_196F8

Kd [14]: 0.37 nM | Kd [11]: 0.089 nM | IC50 pM (potency on human IL22R expressing cells) [12]: 57 pM | Potency (pM) BW-hIL22R [13]: 57 pM
B9: 197D3 (antibody, V domains shown)
VH: B3 VH
VL: B4 VL with I21V, S30R, L32S, A34N, Q55R, T56I, G66A, D91E, S93A
notes: Vkappa-shuffled clone of 170B2 (keeps the 170B2 VH-CH1); also called VK_197D3

binding result [16]: binds
B10: 198B7 (antibody, V domains shown)
VH: B3 VH
VL: B4 VL with L32Q
notes: Vkappa-shuffled clone of 170B2 (keeps the 170B2 VH-CH1); also called VK_198B7

binding result [16]: binds | IC50 pM (potency on human IL22R expressing cells) [12]: 89 pM
B11: 198C9 (antibody, V domains shown)
VH: B3 VH
VL: DIVMTQSPSSLSASLGDRVTITCQATQSISTFLSWYQQKPGQTPKLLVYGASRLQTGVPSRFSGTGSGTKFTLTISGVEAEDLASYFCLQDYSWPLTFGQGTKVELK
notes: Vkappa-shuffled clone of 170B2 (keeps the 170B2 VH-CH1); also called VK_198C9
